Experimental data from the supplement of paper PMC9112550, “Optimization of the antimicrobial peptide Bac7 by deep mutational scanning” (BMC Biology, 2022).

tested on: Escherichia coli TOP10; test: shrunken log2 fold change of peptide-encoding DNA abundance (4.5 h post-induction vs induction); higher = less antimicrobial activity (less host growth inhibition); conditions: time post-induction: 4.5 h; library: site-saturation at positions 5, 18, 19, 20
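Note: peptides expressed intracellularly from a pBAD plasmid library in pooled LB shake-flask culture, induced with 0.3% L-arabinose, DNA abundance read by NGS, three biological replicates, DESeq2 with apeglm shrinkage.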

Sequence	shrunken log2 fold change
RRIRMRPPRLPRPRPRPIDSPRP	0.165
RRIRMRPPRLPRPRPRPIEDPRP	0.224
RRIRMRPPRLPRPRPRPIEKPRP	-0.00199
RRIRMRPPRLPRPRPRPIELPRP	-0.04
RRIRMRPPRLPRPRPRPIFIPRP	2.07
RRIRMRPPRLPRPRPRPIFPPRP	0.229
RRIRMRPPRLPRPRPRPIHRPRP	-0.154
RRIRMRPPRLPRPRPRPIHTPRP	-0.0437
RRIRMRPPRLPRPRPRPIICPRP	-0.00127
RRIRMRPPRLPRPRPRPIKPPRP	-0.231
RRIRMRPPRLPRPRPRPIKWPRP	-0.00876
RRIRMRPPRLPRPRPRPILDPRP	-0.0606
RRIRMRPPRLPRPRPRPILFPRP	-0.385
RRIRMRPPRLPRPRPRPILLPRP	-0.0378
RRIRMRPPRLPRPRPRPILRPRP	0.00958
RRIRMRPPRLPRPRPRPIRPPRP	-0.127
RRIRMRPPRLPRPRPRPISFPRP	-0.496
RRIRMRPPRLPRPRPRPISGPRP	0.0247
RRIRMRPPRLPRPRPRPIVRPRP	-0.0408
RRIRMRPPRLPRPRPRPIWVPRP	-0.0406
RRIRMRPPRLPRPRPRPKAFPRP	0.0392
RRIRMRPPRLPRPRPRPKCEPRP	0.52
RRIRMRPPRLPRPRPRPKCPPRP	0.108
RRIRMRPPRLPRPRPRPKEIPRP	0.38
RRIRMRPPRLPRPRPRPKFEPRP	0.109

Sequence	shrunken log2 fold change
RRIRMRPPRLPRPRPRPKFFPRP	0.0606
RRIRMRPPRLPRPRPRPKFPPRP	0.455
RRIRMRPPRLPRPRPRPKGYPRP	-0.0135
RRIRMRPPRLPRPRPRPKHDPRP	0.43
RRIRMRPPRLPRPRPRPKIDPRP	0.285
RRIRMRPPRLPRPRPRPKIGPRP	-0.0597
RRIRMRPPRLPRPRPRPKMTPRP	2.7
RRIRMRPPRLPRPRPRPKMYPRP	0.0587
RRIRMRPPRLPRPRPRPKNEPRP	0.881
RRIRMRPPRLPRPRPRPKNNPRP	0.311
RRIRMRPPRLPRPRPRPKPNPRP	0.954
RRIRMRPPRLPRPRPRPKPSPRP	1.4
RRIRMRPPRLPRPRPRPKPYPRP	0.314
RRIRMRPPRLPRPRPRPKQEPRP	3.07
RRIRMRPPRLPRPRPRPKQMPRP	1.25
RRIRMRPPRLPRPRPRPKRKPRP	2.32
RRIRMRPPRLPRPRPRPKRRPRP	1.02
RRIRMRPPRLPRPRPRPKSHPRP	-0.0378
RRIRMRPPRLPRPRPRPKSKPRP	0.566
RRIRMRPPRLPRPRPRPKVKPRP	0.614
RRIRMRPPRLPRPRPRPKVYPRP	0.0391
RRIRMRPPRLPRPRPRPKWNPRP	0.523
RRIRMRPPRLPRPRPRPKYLPRP	-0.278
RRIRMRPPRLPRPRPRPLAHPRP	0.0417
RRIRMRPPRLPRPRPRPLCQPRP	0.0549

Sequence	shrunken log2 fold change
RRIRMRPPRLPRPRPRPLCTPRP	1.19
RRIRMRPPRLPRPRPRPLDMPRP	0.167
RRIRMRPPRLPRPRPRPLFFPRP	0.135
RRIRMRPPRLPRPRPRPLFRPRP	1.44
RRIRMRPPRLPRPRPRPLFVPRP	0.286
RRIRMRPPRLPRPRPRPLGFPRP	0.772
RRIRMRPPRLPRPRPRPLGTPRP	1.31
RRIRMRPPRLPRPRPRPLHRPRP	0.304
RRIRMRPPRLPRPRPRPLHTPRP	2.66
RRIRMRPPRLPRPRPRPLICPRP	0.108
RRIRMRPPRLPRPRPRPLILPRP	-0.429
RRIRMRPPRLPRPRPRPLIMPRP	-0.0525
RRIRMRPPRLPRPRPRPLKSPRP	0.11
RRIRMRPPRLPRPRPRPLLCPRP	0.473
RRIRMRPPRLPRPRPRPLMGPRP	-0.0985
RRIRMRPPRLPRPRPRPLMLPRP	-0.0158
RRIRMRPPRLPRPRPRPLMMPRP	0.452
RRIRMRPPRLPRPRPRPLMTPRP	1.3
RRIRMRPPRLPRPRPRPLNQPRP	-0.0442
RRIRMRPPRLPRPRPRPLPFPRP	-0.117
RRIRMRPPRLPRPRPRPLPNPRP	0.098
RRIRMRPPRLPRPRPRPLRWPRP	1.32
RRIRMRPPRLPRPRPRPLRYPRP	0.856
RRIRMRPPRLPRPRPRPLSSPRP	-0.0576
RRIRMRPPRLPRPRPRPLVCPRP	0.368
